Substitutions are numbered along the chain they refer to.
B1: h37D5 (antibody, V domains shown)
VH: EEQLVESGGRLLRPGESLSLSCAAVGFNFGDFGMAWVRQPPGKGLEWVAGINWSGHSTGFVDSMKGRLTISRDSAKSSLFLQMNSLRGEDTAVYYCARVGRLCSGDICDSMGAFDLWGQGTMVTVSS
VL: DIQMTQSPSTLSASIGDRVTITCRASQTIDNWLAWYQQRPGKAPKLLIYQASSLQSGVSSRFRGSGSGTEFTLTITSLQPDDFATYYCQKSNGYSRTFGQGTKVEIK
B2: hm37D5 (antibody, V domains shown)
VH: B1 VH
VL: B1 VL
B3: h12G10 (antibody, human IgG1, V domains shown)
VH: EVQLLESGGRLLRPGGSLSLSCVASGFYFGDFGMSWVRQVPGKGLEWVSGIDWSGRSTGYVDSMKGRLTISRDNDKSSLYLQMNDLRGEDTAVYYCARVGRLCSGDSCDSMGAFDLWGQGTMVTVSS
VL: B1 VL with M4L, R18S, T28N, R39K, K45R, Q50K, Q55G, R61K, S67F, E105D
B4: h32B10 (antibody, V domains shown)
VH: QVQLVQSGAEVKKPGASVKVSCRASGYIFRNFDINWVRQATGQGLEWMGWMSPKSGDTGYAQKFQGRVTMTRDTSINTAYMELSSLTSEDSAVYYCARGVDGTNWGQGTRVTVSS
VL: DIVMTQSPDSLGVSLGERATISCKSSQSILDNSNNKNFIAWFQQKPGQPPKLLIYWASARESGVPDRFSGSGSGTEFTLTINSLQAEDVAVYYCYQYYSTPHTFGQGTKLDLR
B5: h2F8 (antibody, V domains shown)
VH: EVQLVESGGGLVKPGGSLRLSCAASGFIFSDYNMNWVRQAPGKGLEWVSSITRSSRTIYYADSVKGRFTISRDNAKNSLHLQMNSLRDADTAVYYCAREDFDVSTGPYYMDVWGNGTTVIVSS
VL: EIVLTQSPGTLSLSPGERATLSCRASQSVSNMFLVWYQQKPGQAPRLLMYGASTRATDIPDRFSGSGSGTDFTLTISRLEPEDFAVYYCQQNGNSPYTFGQGTKLEIK
B6: h7G6 (antibody, V domains shown)
VH: QVQLVESGGGVVQPGRSLRLSCAASGIAFNDYTMHWVRRSPDKGLEWVAAISYGGTNKYYADSVKGRFTISRDSSKNTLFLQMDSLRVEDTAVYYCARDSGYRSLLHWGQGTLVTVSS
VL: EIVLTQSPLSLPVTPGEPASISCRSSQSLVHRNGYNYLDWYLQKPGQSPQLLIYMASKRASGVPDRFSGSGSGTEFTLKISRVEAEDVGIYYCMQALQTWTFGQGTKVEVN
B7: hm12G10 (antibody, V domains shown)
VH: B3 VH
VL: B1 VL with M4L, R18S, T28N, R39K, K45R, Q50K, Q55G, R61K, S67F, E105D

Molecular target: natural peanut extract
Experiment: ELISA, antigen-coated plate

| Binder | EC50 |
| --- | --- |
| B1 | 6.5 ng/mL |
| B2 | 7.1 ng/mL |
| B3 | 8.1 ng/mL |
| B4 | 4.8 ng/mL |
| B5 | 2.8 ng/mL |
| B6 | 2.8 ng/mL |
| B7 | 8.5 ng/mL |

— patent US20200199207A1
